Reference: patent EP4810515A1 (Shanghai Haiju Biological Technology Co., Ltd., dated 2026)
Numbering of substitutions follows the chain as printed.

T1: human GDF15 recombinant protein (ACRO, GD5-H5149) (human, UniProt Q99988 197-308)
T1 sequence (looked up): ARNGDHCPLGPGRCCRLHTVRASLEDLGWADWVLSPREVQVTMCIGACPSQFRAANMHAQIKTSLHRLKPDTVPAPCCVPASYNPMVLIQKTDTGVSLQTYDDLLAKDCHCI

T2: GDF15 protein (R&D, 8146-GD) (UniProt Q99988 197-308)
T2 construct: analyte of the SPR assay
T2 sequence (looked up): T1 sequence (looked up)

B1: G2-H1-hz2-hIgG1(LALAGA, -K) (antibody, V domains shown)
VH: QVQLQESGPGLVKPSETLSLTCTFSGFSLSTYGIGVGWIRQPPGKGLEWIAHIWWNNNKYFNTALKSRLTISKDTSKNQVSLKLSSVTAADTAVYYCARMGYDIMDYWGQGTLVTVSS
VL: DIVMTQSPSSLSTSVGDRVTITCKASQDVNTAVAWYQQKPGKSPKFLIYSSSYRYTGVPDRFSGSGSGTDFTFTISSVQPEDFAVYYCQQHYSTPWTFGGGTKVEIKR
notes: humanized from G2-CH1
B2: G2-H1-hz13-hIgG1(LALAGA, -K) (antibody, V domains shown)
VH: QVTLLESGGGLVQPGGSLRLSCSFSGFSLSTYGIGVGWIRQAPGKGLEWLAHIWWNNNKYFNTALKSRLTISKDTSKNTVYLQMNSVRAEDTAVYYCARMGYDIMDYWGQGTTVTVSS
VL: B1 VL with V3Q, S43A, V78L, G100Q
notes: humanized from G2-CH1
B3: G2-H1-hz8-hIgG1(LALAGA, -K) (antibody, V domains shown)
VH: B1 VH with Q3T, T23S, I50L, V94T, L113S
VL: B1 VL with S9A, S10T, V15P, D17E, T22S, K42Q, K45R, P80S
notes: humanized from G2-CH1
B4: G2-H1-hz6-hIgG1(LALAGA, -K) (antibody, V domains shown)
VH: B1 VH with Q3T, T23S, I50L, V94T, L113S
VL: B1 VL
notes: humanized from G2-CH1
B5: G2-H1-hz1-hIgG1(LALAGA, -K) (antibody, V domains shown)
VH: B1 VH
VL: B1 VL with V3Q, S43A, V78L, G100Q
notes: humanized from G2-CH1
B6: G2-H1-hz4-hIgG1(LALAGA, -K) (antibody, V domains shown)
VH: B1 VH
VL: B1 VL with S9A, S10T, V15P, D17E, T22S, K42Q, K45R, P80S
notes: humanized from G2-CH1
B7: G2-H1-hz14-hIgG1(LALAGA, -K) (antibody, V domains shown)
VH: B2 VH
VL: B1 VL
notes: humanized from G2-CH1
B8: G2-H8-H1L1-hIgG1(LALAGA,-K)(gsm) (antibody, V domains shown)
VH: QITLKESGPTLVKPTQTLTLTCTFSGFSLSTYGIGVGWIRQPPGKALEWLAHIWWNDNKYYNTALKSRLTITKDTSKNQVVLTMTNMDPVDTATYYCARLAYDYVDSWGQGTLVTVSS
VL: DIVMTQTPLSLSVTPGQPASISCKSSKSLLHSEGITYLYWYLQKPGQSPQLLIYQMSNLVSGVPDRFSGSGSGTDFTLKISRVEAEDVGVYYCAQNLELPPTFGQGTKLEIKR
notes: humanized from G2-CH8-LP3; also called G2-H8-H1L1-hIgG1(gsm); G2-H8-H1L1-hIgG1 (gsm)(LALAGA,-K)
B9: G2-H8-H2L2-hIgG1(LALAGA,-K) (antibody, V domains shown)
VH: B8 VH with I2V, T10A, A46G, T72S, L113T, V114L
VL: B8 VL with K24R, G69S
notes: humanized from G2-CH8-LP3
B10: G2-H1-hz15-hIgG1(LALAGA, -K) (antibody, V domains shown)
VH: B2 VH
VL: DIVMTQSPATLSTSPGERATLSCKASQDVNTAVAWYQQKPGQAPRFLIYSSSYRYTGVPARFSGSGSGTEFTFTISSLQSEDFAVYYCQQHYSTPWTFGGGTKVEIKR
notes: humanized from G2-CH1
B11: G2-H5-H2.2L2-hIgG1(LALAGA,-K) (antibody, V domains shown)
VH: EVQLVQSGAEVKKPGASVKVSCKASGYTFTDYNLNWVRQATGQGLEWMGDLNPYNQGIIYNQKFKGRVTLTVDKSISTAYMELSSLRSEDTAVYYCAREGRGGAWFDSWGQGTLVTVSS
VL: DIQMTQSPSSLSASVGDRVTITCKASEDIYHRLAWYQQKPGKAPKLLIYGATSLETGVPSRFSGSGSGTDYTFTISSLQPEDIATYYCQQYWSPPFTFGGGTKVEIKR
notes: humanized from G2-CH5-HP2
B12: G2-H5-H2.2L3-hIgG1(LALAGA,-K) (antibody, V domains shown)
VH: B11 VH
VL: B11 VL with Y49S
notes: humanized from G2-CH5-HP2
B13: G2-H5-H1.2L3-hIgG1(LALAGA,-K) (antibody, V domains shown)
VH: B11 VH with L70M, K74T
VL: B11 VL with Y49S
notes: humanized from G2-CH5-HP2
B14: G2-H5-H2.2L4-hIgG1(LALAGA,-K) (antibody, V domains shown)
VH: B11 VH
VL: B11 VL with Y49S, V58I
notes: humanized from G2-CH5-HP2
B15: G2-H5-H3.2L2-hIgG1(LALAGA,-K) (antibody, V domains shown)
VH: B11 VH with M48I, V68A
VL: B11 VL
notes: humanized from G2-CH5-HP2
B16: G2-H5-H1.2L4-hIgG1(LALAGA,-K) (antibody, V domains shown)
VH: B11 VH with L70M, K74T
VL: B11 VL with Y49S, V58I
notes: humanized from G2-CH5-HP2
B17: G2-H5-H3.2L1-hIgG1(LALAGA,-K) (antibody, V domains shown)
VH: B11 VH with M48I, V68A
VL: B11 VL with Y71F
notes: humanized from G2-CH5-HP2
B18: G2-H5-H3.2L3-hIgG1(LALAGA,-K) (antibody, V domains shown)
VH: B11 VH with M48I, V68A
VL: B11 VL with Y49S
notes: humanized from G2-CH5-HP2
B19: G2-H5-H1.2L1-hIgG1(LALAGA,-K) (antibody, V domains shown)
VH: B11 VH with L70M, K74T
VL: B11 VL with Y71F
notes: humanized from G2-CH5-HP2
B20: G2-H5-H2.2L1-hIgG1(LALAGA, -K) (antibody, V domains shown)
VH: B11 VH
VL: B11 VL with Y71F
notes: humanized from G2-CH5-HP2
B21: G2-H5-H1.2L2-hIgG1(LALAGA,-K) (antibody, V domains shown)
VH: B11 VH with L70M, K74T
VL: B11 VL
notes: humanized from G2-CH5-HP2

biological target: T1, human GDF15 recombinant protein (ACRO, …); assay: cell-based or functional assay

IC50, reporter gene cell strain (GFRAL/RET) [pM] | Binder
80 | B1
62 | B2
62 | B3
73 | B4
63 | B5
71 | B6
85 | B7
69 | B8
53 | B9
77 | B10
49 | B11
48 | B12
69 | B13
48 | B14
41 | B15
53 | B16
68 | B17
64 | B18
36 | B19
55 | B20
46 | B21

biological target: T2, GDF15 protein (R&D, 8146-GD); assay: SPR Biacore T200, antibody captured by anti-hFc on CM5, GDF15 as analyte, 1:1 model

Kd [pM] | koff [s⁻¹] | kon [M⁻¹ s⁻¹] | Binder
13.4 | 0.000192 | 1.43e+07 | B1
21.1 | 0.000297 | 1.41e+07 | B2
17.8 | 0.000273 | 1.53e+07 | B3
15.1 | 0.000221 | 1.46e+07 | B4
10.5 | 0.000146 | 1.39e+07 | B5
9.93 | 0.000183 | 1.84e+07 | B6
10.7 | 0.00015 | 1.4e+07 | B7
22 | 0.00017 | 7.75e+06 | B8
14.3 | 0.000127 | 8.9e+06 | B9
9.23 | 0.000115 | 1.25e+07 | B10
17.8 | 0.000145 | 8.11e+06 | B11
33.6 | 0.000284 | 8.46e+06 | B12
19.7 | 0.000185 | 9.37e+06 | B13
21 | 0.000231 | 1.1e+07 | B14
32.7 | 0.000265 | 8.1e+06 | B15
24.1 | 0.000201 | 8.36e+06 | B16
24.5 | 0.000173 | 7.03e+06 | B17
33.9 | 0.000359 | 1.06e+07 | B18
24.4 | 0.000169 | 6.94e+06 | B19
22.9 | 0.000189 | 8.26e+06 | B20
14.5 | 0.000134 | 9.19e+06 | B21
